Results published in article PMC4760375, “A dual phosphorylation switch controls 14-3-3-dependent cell surface expression of TASK-1” (Journal of Cell Science, 2016).
Non-standard residues stand in square brackets, D forms with d. No end group written: not given here. pS = N[C@@H](COP(=O)(O)O)C(=O)O

Columns and labels:
14-3-3ε = molecular target: T1, 14-3-3ε (human, UniProt P62258 1-255); experiment: FP
T1 chain: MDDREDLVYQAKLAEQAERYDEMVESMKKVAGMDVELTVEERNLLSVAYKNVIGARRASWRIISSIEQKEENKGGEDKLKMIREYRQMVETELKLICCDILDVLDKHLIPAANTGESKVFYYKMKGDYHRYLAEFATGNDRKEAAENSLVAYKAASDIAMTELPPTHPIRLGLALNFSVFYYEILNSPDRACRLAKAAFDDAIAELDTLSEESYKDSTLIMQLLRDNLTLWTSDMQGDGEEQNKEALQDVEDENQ

14-3-3ζ [1] = molecular target: T2, 14-3-3ζ (human, UniProt P63104 1-245); experiment: FP
T2 chain: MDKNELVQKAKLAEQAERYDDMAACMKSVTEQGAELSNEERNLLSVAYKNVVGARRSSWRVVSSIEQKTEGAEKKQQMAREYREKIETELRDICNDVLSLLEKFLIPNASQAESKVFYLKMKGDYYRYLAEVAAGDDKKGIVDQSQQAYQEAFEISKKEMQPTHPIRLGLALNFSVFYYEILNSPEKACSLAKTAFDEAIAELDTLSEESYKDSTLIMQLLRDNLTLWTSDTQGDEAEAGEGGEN

14-3-3γ [2] = molecular target: T3, 14-3-3γ (human, UniProt P61981 1-247); experiment: FP
T3 chain: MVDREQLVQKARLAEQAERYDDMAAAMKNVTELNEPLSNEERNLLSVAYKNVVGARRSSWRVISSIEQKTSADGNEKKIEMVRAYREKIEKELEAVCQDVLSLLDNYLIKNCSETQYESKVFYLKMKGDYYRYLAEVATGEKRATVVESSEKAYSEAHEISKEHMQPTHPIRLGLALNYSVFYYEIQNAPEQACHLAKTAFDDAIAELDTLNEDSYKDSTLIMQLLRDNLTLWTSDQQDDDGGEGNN

14-3-3τ [3] = molecular target: T4, 14-3-3τ (human, UniProt P27348 1-245); experiment: FP
T4 chain: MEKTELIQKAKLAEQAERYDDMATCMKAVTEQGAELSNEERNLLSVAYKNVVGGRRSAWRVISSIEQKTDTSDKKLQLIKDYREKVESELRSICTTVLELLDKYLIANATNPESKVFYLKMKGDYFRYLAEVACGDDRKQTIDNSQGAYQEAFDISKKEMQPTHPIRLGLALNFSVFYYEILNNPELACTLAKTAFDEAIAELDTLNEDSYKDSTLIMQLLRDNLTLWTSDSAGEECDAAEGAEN

14-3-3β = molecular target: T5, 14-3-3β (human, UniProt P31946 1-246); experiment: FP
T5 chain: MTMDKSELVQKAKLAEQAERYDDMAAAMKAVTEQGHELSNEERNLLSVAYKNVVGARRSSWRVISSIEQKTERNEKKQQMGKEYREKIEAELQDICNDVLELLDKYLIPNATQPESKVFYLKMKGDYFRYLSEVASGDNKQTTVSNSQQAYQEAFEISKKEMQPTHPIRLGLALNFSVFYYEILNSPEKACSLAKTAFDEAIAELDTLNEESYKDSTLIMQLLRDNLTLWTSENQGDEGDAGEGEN

14-3-3η [4] = molecular target: T6, 14-3-3η (human, UniProt Q04917 1-246); experiment: FP
T6 chain: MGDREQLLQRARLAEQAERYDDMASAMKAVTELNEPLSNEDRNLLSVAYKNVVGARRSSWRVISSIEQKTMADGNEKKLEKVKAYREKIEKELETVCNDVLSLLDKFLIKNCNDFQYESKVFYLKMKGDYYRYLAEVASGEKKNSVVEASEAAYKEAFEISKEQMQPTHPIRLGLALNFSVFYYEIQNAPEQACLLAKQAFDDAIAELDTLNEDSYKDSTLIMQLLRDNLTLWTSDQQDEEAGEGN

14-3-3γ [5] = molecular target: T7, 14-3-3γ (human, UniProt P61981 1-247); experiment: fluorescence polarisation; 10 nM fluorescein-labelled peptide titrated with 14-3-3 protein (1 nM to 120 µM in the results, 100 µM to 1 nM in the methods); 20 mM MOPS, 150 mM NaCl, 0.005% (v/v) CHAPS pH 7.0; room temperature; monophasic fit; settings: both partners purified
T7 construct: 14-3-3 protein gamma, human; open reading frame inserted into pMAL2Cx; also called 14-3-3 gamma
T7 sequence (looked up): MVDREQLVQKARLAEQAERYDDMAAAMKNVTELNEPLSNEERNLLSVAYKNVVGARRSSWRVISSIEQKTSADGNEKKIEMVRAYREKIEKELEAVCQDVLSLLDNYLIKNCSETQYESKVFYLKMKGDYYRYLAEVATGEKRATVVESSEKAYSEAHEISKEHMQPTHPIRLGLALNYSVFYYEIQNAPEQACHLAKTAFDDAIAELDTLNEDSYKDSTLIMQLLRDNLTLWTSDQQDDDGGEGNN

14-3-3ζ [6] = molecular target: T8, 14-3-3ζ (human, UniProt P63104 1-245); experiment: as above; settings: both partners purified
T8 construct: 14-3-3 protein zeta, human; open reading frame inserted into pMAL2Cx; also called 14-3-3 zeta
T8 sequence (looked up): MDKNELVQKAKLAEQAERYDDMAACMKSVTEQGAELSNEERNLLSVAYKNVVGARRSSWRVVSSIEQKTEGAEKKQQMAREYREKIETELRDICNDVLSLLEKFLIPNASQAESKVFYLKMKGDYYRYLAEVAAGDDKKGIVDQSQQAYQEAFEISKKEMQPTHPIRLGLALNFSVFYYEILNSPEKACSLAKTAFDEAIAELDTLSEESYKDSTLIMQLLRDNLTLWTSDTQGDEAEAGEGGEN

14-3-3η [7] = molecular target: T9, 14-3-3η (human, UniProt Q04917 1-246); experiment: as above; settings: both partners purified
T9 construct: 14-3-3 protein eta, human; open reading frame inserted into pMAL2Cx; also called 14-3-3 eta
T9 sequence (looked up): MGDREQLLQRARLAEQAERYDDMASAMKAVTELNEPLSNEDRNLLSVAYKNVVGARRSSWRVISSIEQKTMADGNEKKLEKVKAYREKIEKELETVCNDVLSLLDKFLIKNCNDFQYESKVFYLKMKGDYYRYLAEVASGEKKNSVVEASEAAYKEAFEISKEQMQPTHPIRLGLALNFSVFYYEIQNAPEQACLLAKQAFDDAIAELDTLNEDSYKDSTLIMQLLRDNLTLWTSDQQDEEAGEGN

14-3-3τ [8] = molecular target: T10, 14-3-3τ (human, UniProt P27348 1-245); experiment: as above; settings: both partners purified
T10 construct: 14-3-3 protein tau (theta), human; open reading frame inserted into pMAL2Cx; also called 14-3-3 tau
T10 sequence (looked up): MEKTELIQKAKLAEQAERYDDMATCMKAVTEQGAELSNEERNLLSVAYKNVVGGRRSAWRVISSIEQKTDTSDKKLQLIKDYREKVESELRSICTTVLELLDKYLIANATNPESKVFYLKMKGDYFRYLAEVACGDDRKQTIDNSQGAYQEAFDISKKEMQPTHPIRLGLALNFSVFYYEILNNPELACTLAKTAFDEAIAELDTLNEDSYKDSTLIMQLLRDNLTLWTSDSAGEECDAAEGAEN

- Kd (14-3-3ε): 18000 nM
- Kd (14-3-3ζ [1]): 3300 nM
- Kd (14-3-3γ [2]): 1100 nM
- Kd (14-3-3τ [3]): 2400 nM
- Kd (14-3-3β): 1200 nM
- Kd (14-3-3η [4]): 1600 nM
- binding result (14-3-3γ [5]): binds
- binding result (14-3-3ζ [6]): binds
- binding result (14-3-3η [7]): binds
- binding result (14-3-3τ [8]): binds
B1: TASK-3 pS373 ΔV374 C-terminal fluorescent peptide (peptide, UniProt Q9NPC2 360-374, looked up)
peptide: SFTDHQRLMKRRK[pS]
modifications: also: fluorescein label, position not given here
notes: TASK-3 (KCNK9), human, C-terminal peptide with phosphorylated S373 but lacking the C-terminal valine V374; ends at pS373; source: synthetic peptide, bought: Peps4Life Sciences
